B1: TPR t1 (parent)
chain: GACCAAUCUGCCCUCAGAGCUCGAGAACAUCUUCGGAUGCAGAGGAGGCAGGCUUCGGUGGCGCGAUAGCGCCAACGUCCUCAACCUCCAAUGCAUCCCACCACAUGAUGAUGCCUGAAGAGCCUUGGUUUUUUG

Variants of: B1
Test: polymerase ribozyme fitness, log enrichment relative to wild type (log ratio); higher = more active; in vitro selection for triplet polymerase activity
Method in brief: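 Each subunit of a heterodimeric triplet polymerase ribozyme was represented by a PCR-built, transcribed mutant library that underwent triplicate single-round in vitro selection with frozen incubation at −7 °C. Extended constructs were recovered by gel excision, streptavidin-bead capture and RT-PCR, and Illumina sequencing of input and output libraries kept genotypes with ≥10 input reads and ≥1 read per output. Fitness is the logarithm of genotype enrichment relative to wild-type enrichment, from inverse-variance-weighted replicate averages, with a logarithm base of 2.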

In order of falling “polymerase ribozyme fitness (log ratio)” value:
1. C56U U112A U134A  2.39
2. G10A C11G C12U U96C C104U C123G U131G  2.08
3. C3U G52A A121U  1.95
4. A119U G120C  1.55
5. C8G G61U  0.967
6. C3U U9G  0.724
7. C12U G39C A121C  0.709
8. G48A C123A  0.577
9. G48U C123U  0.57
10. C8A C12A  0.497
11. C56G C101U U130C  0.475
12. C8A C86U  0.466
13. C72A C80U  0.231
14. G61A G122U  0.115
15. G10C C12A U54C G122A  0.0391
16. C11G G135U  -0.0424
17. G10U A118U  -0.131
18. A5U C62U C72U  -0.208
19. A118G G135C  -0.273
20. U55G C72U  -0.317
21. C11G G60C  -0.354
22. G44U C124G  -0.383
23. G58C C101U  -0.386
24. G52A C62U C79G  -0.394
25. G10U C12U C82A A84G  -0.497
26. U9A G44U C56U G122A  -0.525
27. C82U C86U G110A U133C  -0.604
28. A5U C8U C11U G61A G113A C124G  -0.703
29. C4A U9A C72A U78C  -0.731
30. C73G U112A  -0.766
31. C72G U78C C82U C94A  -0.768
32. U9G G36U G57U  -0.893
33. U54A G63U  -0.939
34. C40A G120U  -0.939
35. C53A C115U  -0.961
36. C64U A111C U112C  -0.987
37. G60A C76U  -1
38. G71C C115A  -1.07
39. U9A A27G C114U  -1.28
40. C73G C101A  -1.3
41. C20A A37U G61A A121C G122A  -1.31
42. G39C G57A  -1.33
43. U21C U78A A91U  -1.45
44. C62G A95G  -1.49
45. C82U U96A  -1.57
46. A24G A90G  -1.65
47. C49U C89G  -1.74
48. G113A U132C  -1.76
49. C11U A66C  -1.81
50. C3G C40G  -1.82
51. G57A C97U  -1.83
52. A43U G45A C56A  -1.86
53. G60A A111C C123A  -1.91
54. G60U G61U  -1.93
55. U32C G42A C56U C115U  -1.93
56. U78C G128A  -1.95
57. G51A A74G  -1.96
58. C28U G58A  -2.03
59. A83C C102A  -2.03
60. C11U G69A A84C  -2.03
61. C12G C15G G51U C73A G117U  -2.07
62. G10C C11G C20U A43U C72U  -2.23
63. A5C G48U C49A C94A  -2.25
64. A111G C115U  -2.28
65. U21C G57U C72G  -2.29
66. G61C C73U  -2.31
67. A37U A43G C86G  -2.33
68. A16U C70G C79U C94U  -2.44
69. C4U G69C C97U G122A  -2.49
70. A6C U9A G52A A68G U106A  -2.55
71. U78A C88U U96G U129A U131A  -2.62
72. G42A C88G  -2.63
73. A6U U7C C102U G127C U131G  -2.65
74. G36A C86A C115A G120U  -2.65
75. G36U A43U  -2.65
76. A41G G71U A91U  -2.66
77. C31U C85A U106A  -2.67
78. G17U G71U U132A  -2.7
79. A66U G77A A95C  -2.7
80. U92C C115U  -2.72
81. G48U C114U  -2.73
82. C15A G117A U129C  -2.87
83. C40G C102A A118U  -2.92
84. U59A G60U C89G C97U  -2.98
85. U7G G63A C102U  -3.01
86. G44A G45U G93A  -3.07
87. U54G G113C U126C  -3.09
88. C64U A90U A100U  -3.1
89. A29G G60C A74U  -3.15
90. C11U A26U  -3.21
91. A29U G39U G61A G122A  -3.23
92. C11G U54C C62A A95C G128C  -3.23
93. U21C A46G C53A C98U  -3.28
94. G17U G117A  -3.31
95. G48U A66G C86A U125G G127C  -3.31
96. A66C C85G U130A  -3.4
97. C20U A46U C89U  -3.4
98. A2U G52U  -3.41
99. A26U G45A G77U  -3.48
100. U30C G113C  -3.49
101. G57C A83C A111G G122A G127A  -3.51
102. A18C U55C  -3.52
103. G58C G61U C94A U116A  -3.54
104. U7G C70U C86U U92A  -3.6
105. C13G C102A  -3.6
106. G51U G120U  -3.69
107. C99U A119U U130A  -3.7
108. G19U C62G G71U  -3.71
109. C12U C13U C76A C114G  -3.72
110. A66U U116G  -3.73
111. G42A C85A C94U  -3.73
112. C49A G117C  -3.75
113. G10C C80A U130G  -3.78
114. G60U C70A  -3.78
115. C11A C64U U106A A108U  -3.91
116. C12A C15G C53U C88U U112A G113U C123A U129C  -3.91
117. C53A G63A C115U  -3.96
118. G35U G48C A121C  -3.96
119. U9G A46C U87A G93C C115A U116C A119C  -3.97
120. C73U A75U U87A U92A  -4.13
121. C40U C73U C80U G117U  -4.15
122. C102A C114A  -4.17
123. U32C G48A G52U C114A  -4.17
124. U7G A26G C34U G113A  -4.39
125. G17C G39A C64U  -4.45
126. U59A C104A G110U C115A  -4.57
127. A5C G10A C34A G63U  -4.64
128. C53G C73A C102A G128C  -4.69
129. C20U G47C A75U A91U  -4.77
130. A18U C64U C97U U116C G120A  -4.84
131. G117C U125A G135C  -4.9
132. C12U C34A G63A  -5.16
133. C11A G47A G61U A105U U126A  -5.18
134. C8U G19A A46U C73A G110U  -5.19
135. G42U U54G A68G  -5.22
136. A2C U109G C114U U129G  -5.24
137. C34A A66U C101U  -5.31
138. G17A C72U C114U  -5.33
139. U59A C70A C102A  -5.39
140. G63U A68C A121G  -5.43
141. A41U C53U G117C U131A  -5.46
142. U21A A29G A43U C56G A83C A91C G120U  -5.54
143. G63C C73G C115G  -5.56
144. U9G U32A C62G U92G G117C  -5.56
145. C40A G48A G117C  -5.6
146. A37G G48A C56G G93A G110C  -5.64
147. C11G G36U A43U C62U G63A C115U U125A U132A  -5.64
148. C115G G117C  -5.84
149. G51A G71A G93A U129C  -5.9
150. A43U C72A C114U G128C  -5.92
151. U9G G42C A103G C124A  -6.09
152. C102G C104U  -6.12
153. C104G C124U  -6.14
154. C22A C70G A111C G113C  -6.22
155. G23U G71C C94U C115U  -6.24
156. G60U G63U C99U C101G C115G G122U C124G  -6.39
157. C11G C12U G42C G69C C115G  -6.44
158. G60U A103G U112G  -6.67
159. C11A U33G G52U C56U C64G G120C  -6.81
160. C22G G23C A24C C89A C123A  -6.86
161. C34U U109C C114A  -6.96
162. C31G G36U C49U U112G  -6.99
163. G23C A37G C40A G45A G57A C114A A118U  -7.04
164. C8G A68U G77C G120C  -7.19
165. G51U G61C G117C U131G  -7.34
166. C85A G107A U112G C114U G120U  -7.47
167. G10A C40A C72U C76A C99A  -7.55
